Measured values as given in the supplement of paper PMC10567573.

B1: MED27 (parent)
chain: YNENVYTEDGKLDIWSKSNYQVFQ

Variants of: B1
Assay: protein stability index of a GFP-peptide fusion (GPS, HEK-293T) (PSI 1-6); higher = more stable
Conditions: c terminus: a fixed tail appended
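Also: lentivirally expressed fusions sorted by FACS into six bins by GFP to DsRed ratio, PSI derived from sequencing read proportions per bin multiplied by bin number.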

Variant | protein stability index
N2M | 2.01
N2P | 2.09
N2Q | 2.33
N2R | 2.4
N2S | 2.02
N2T | 1.95
N2V | 3.18
N2W | 1.69
N2Y | 2.1
E3A | 1.88
E3C | 2.04
E3D | 1.48
E3F | 1.8
E3G | 2.34
E3H | 1.92
E3I | 1.81
E3K | 2.31
E3L | 1.48
E3M | 1.59
E3N | 2.36
E3P | 1.31
E3Q | 2.17
E3R | 1.41
E3S | 1.76

Variant | protein stability index
E3T | 1.88
E3V | 1.69
E3W | 1.44
E3Y | 1.64
N4A | 2.54
N4C | 2.29
N4D | 2.21
N4E | 2.73
N4F | 1.93
N4G | 2.37
N4H | 2.04
N4I | 2.04
N4K | 1.8
N4L | 1.99
N4M | 2
N4P | 1.96
N4Q | 2.53
N4R | 2.31
N4S | 1.52
N4T | 2.21
N4V | 1.89
N4W | 1.15
N4Y | 1.47
V5A | 2.47

Variant | protein stability index
V5C | 2.05
V5D | 3.26
V5E | 3.28
V5F | 1.72
V5G | 2.71
V5H | 2.95
V5I | 2.73
V5K | 2.15
V5L | 2.21
V5M | 2.1
V5N | 3.01
V5P | 2.35
V5Q | 3.06
V5R | 2.25
V5S | 2.34
V5T | 2.67
V5W | 1.91
V5Y | 1.97
Y6A | 2.62
Y6C | 2.84
Y6D | 3.3
Y6E | 3.17
Y6F | 2.55
Y6G | 2.57

Variant | protein stability index
Y6H | 2.95
Y6I | 2.43
Y6K | 2.34
Y6L | 2.38
Y6M | 2.17
Y6N | 3
Y6P | 2.68
Y6Q | 2.76
Y6R | 2.48
Y6S | 3.26
Y6T | 2.98
Y6V | 3.02
Y6W | 2.04
T7A | 2.21
T7C | 2.63
T7D | 2.7
T7E | 2.96
T7F | 2.13
T7G | 2.53
T7H | 2.11
T7I | 1.72
T7K | 2.35
T7L | 1.8
T7M | 1.75

Variant | protein stability index
T7N | 2.14
T7P | 2.21
T7Q | 2.48
T7R | 2.06
T7S | 1.95
T7V | 2.05
T7W | 1.07
T7Y | 2.46
E8A | 2.33
E8C | 2.18
E8D | 1.84
E8F | 1.69
E8G | 1.64
E8H | 2.07
E8I | 1.29
E8K | 1.86
E8L | 1.92
E8M | 1.57
E8N | 2.62
E8P | 1.68
E8Q | 1.82
E8R | 1.55
E8S | 1.7
E8T | 1.93

Variant | protein stability index
E8V | 1.31
E8W | 1.64
E8Y | 1.97
D9A | 1.65
D9C | 1.64
D9E | 2.37
D9F | 1.76
D9G | 1.63
D9H | 1.97
D9I | 1.71
D9K | 2.02
D9L | 1.77
D9M | 1.69
D9N | 1.76
D9P | 2.03
D9Q | 1.55
D9R | 1.7
D9S | 1.96
D9T | 1.8
D9V | 1.98
D9W | 2.01
D9Y | 2.03
G10A | 2.3
G10C | 1.97

Variant | protein stability index
G10D | 2.96
G10E | 2.65
G10F | 1.65
G10H | 2.61
G10I | 1.93
G10K | 2.91
G10L | 2.17
G10M | 2.73
G10N | 2.54
G10P | 2.42
G10Q | 2.5
G10R | 2.21
G10S | 2.23
G10T | 2.45
G10V | 1.96
G10W | 1.99
G10Y | 1.76
K11A | 2.27
K11C | 1.78
K11D | 3.48
K11E | 2.93
K11F | 2.22
K11G | 2.22
K11H | 2.2

Variant | protein stability index
K11I | 2.71
K11L | 1.59
K11M | 2.32
K11N | 2.56
K11P | 2.13
K11Q | 2.38
K11R | 1.96
K11S | 2.45
K11T | 2.43
K11V | 2.04
K11W | 2
K11Y | 1.94
L12A | 2.5
L12C | 2.33
L12D | 3.34
L12E | 3.14
L12F | 2.19
L12G | 2.63
L12H | 2.07
L12I | 2.23
L12K | 2.33
L12M | 2.07
L12N | 2.37
L12P | 2.39

Variant | protein stability index
L12Q | 3.1
L12R | 2.01
L12S | 2.37
L12T | 2.21
L12V | 2.58
L12W | 2.2
L12Y | 1.93
D13A | 2.12
D13C | 2.09
D13E | 2.36
D13F | 1.84
D13G | 1.88
D13H | 2.44
D13I | 2.06
D13K | 2.55
D13L | 1.69
D13M | 1.79
D13N | 1.76
D13P | 2.81
D13Q | 2.05
D13R | 2.32
D13S | 1.92
D13T | 1.63
D13V | 3

Variant | protein stability index
D13W | 2.46
D13Y | 2.04
I14A | 2.9
I14C | 2.92
I14D | 3.48
I14E | 3.87
I14F | 2.3
I14G | 3.29
I14H | 2.83
I14K | 2.71
I14L | 2.49
I14M | 2.65
I14N | 3.28
I14P | 2.29
I14Q | 3.07
I14R | 3.23
I14S | 3.23
I14T | 2.78
I14V | 2.62
I14W | 2.15
I14Y | 1.95
W15A | 4.13
W15C | 3.74
W15D | 4.42

Variant | protein stability index
W15E | 4.12
W15F | 2.81
W15G | 4.19
W15H | 3.85
W15I | 3.31
W15K | 4.03
W15L | 3.32
W15M | 3.3
W15N | 4.08
W15P | 3.74
W15Q | 3.89
W15R | 3.64
W15S | 3.83
W15T | 3.7
W15V | 3.5
W15Y | 3.19
S16A | 2.45
S16C | 2.06
S16D | 3.25
S16E | 2.6
S16F | 2.87
S16G | 2.33
S16H | 1.93
S16I | 1.98

Variant | protein stability index
S16K | 2.04
S16L | 1.82
S16M | 1.81
S16N | 2.12
S16P | 2.05
S16Q | 2.26
S16R | 1.78
S16T | 2.38
S16V | 2.06
S16W | 1.91
S16Y | 2.02
K17A | 2.24
K17C | 1.54
K17D | 2.26
K17E | 2.37
K17F | 1.68
K17G | 2.34
K17H | 2.43
K17I | 1.74
K17L | 2.22
K17M | 2.3
K17N | 2.07
K17P | 2.68
K17Q | 1.89

Variant | protein stability index
K17R | 1.95
K17S | 1.98
K17T | 1.84
K17V | 2.17
K17W | 1.92
K17Y | 1.98
S18A | 2.34
S18C | 1.86
S18D | 3.09
S18E | 3.33
S18F | 1.36
S18G | 1.91
S18H | 2.42
S18I | 1.96
S18K | 1.97
S18L | 2
S18M | 2.21
S18N | 2.69
S18P | 2.13
S18Q | 2.56
S18R | 1.52
S18T | 2.62
S18V | 2.58
S18W | 1.68

Variant | protein stability index
S18Y | 2.26
N19A | 2.52
N19C | 1.59
N19D | 2.75
N19E | 3.36
N19F | 1.67
N19G | 1.96
N19H | 2.19
N19I | 1.6
N19K | 1.96
N19L | 1.58
N19M | 1.94
N19P | 1.88
N19Q | 2.26
N19R | 2.4
N19S | 2.05
N19T | 1.78
N19V | 1.58
N19W | 1.73
N19Y | 2.56
Y20A | 2.49
Y20C | 2.49
